2 substances from paper PMC3197488 can be followed below.

Data set [1] addresses P. aeruginosa single-stranded DNA-binding protein (P. aeruginosa) (UniProt P40947). Put plainly: AUC; sedimentation velocity; χψ titrated to 6 μM SSB in high salt buffer, 50000 rpm, 20°C, 280 nm; free χψ from c(s); model of n independent χψ per SSB tetramer.
The target is the same in data set [2]. Nature of the data set: AUC; sedimentation velocity; χψ titrated to 0.35 μM cognate SSB saturated with 12.3 μM poly(dT), low salt buffer, 22000 rpm, 20°C, 230 nm; model of n χψ per SSB tetramer.
In data set [3] the target is PaeSSB;Pae chi-psi complex (DNA polymerase III) (Pseudomonas aeruginosa;Pseudomonas aeruginosa PAO1) (UniProt P40947+O68823). Nature of the data set: analytical ultracentrifugation (sedimentation velocity). Conditions: Low salt: 5 mM NaCl, 5 mM KPi pH 7.4, 0.87 M glycerol, 0.5 mM DTT; high salt: 0.3 M NaCl, 20 mM KPi pH 7.4, 0.5 mM DTT; AUC at 20 C; EMSA incubated 10 min at ….
PaeSSB;Pae chi-psi complex (DNA polymerase III) (Pseudomonas aeruginosa;Pseudomonas aeruginosa PAO1), sequence (P40947 2-165, one chain of several): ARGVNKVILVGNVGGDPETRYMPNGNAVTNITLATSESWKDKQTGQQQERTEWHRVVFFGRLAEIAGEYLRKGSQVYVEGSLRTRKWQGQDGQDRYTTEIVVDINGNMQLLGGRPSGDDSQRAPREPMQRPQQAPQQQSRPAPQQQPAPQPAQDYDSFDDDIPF

Data set [4] concerns the target T1, Pae chi-psi complex (DNA polymerase III) (Pseudomonas aeruginosa PAO1) (UniProt O68823).
T1 sequence: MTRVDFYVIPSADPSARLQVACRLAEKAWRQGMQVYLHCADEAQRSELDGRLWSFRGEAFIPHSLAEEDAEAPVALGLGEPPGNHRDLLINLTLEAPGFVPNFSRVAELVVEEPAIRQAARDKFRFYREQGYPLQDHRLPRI
The data set is described as above. Conditions: Low salt: 5 mM NaCl, 5 mM KPi pH 7.4, 0.87 M glycerol, 0.5 mM DTT; high salt: 0.3 M NaCl, 20 mM KPi pH 7.4, 0.5 mM DTT; AUC at 20 C; EMSA incubated 10 min at ….

Data set [5] concerns the target EcoSSB;Eco chi-psi complex (Escherichia coli;Escherichia coli LK111lambda) (UniProt P0AGE0+P28905+P28632). The description is as above. Conditions: Low salt: 5 mM NaCl, 5 mM KPi pH 7.4, 0.87 M glycerol, 0.5 mM DTT; high salt: 0.3 M NaCl, 20 mM KPi pH 7.4, 0.5 mM DTT; AUC at 20 C; EMSA incubated 10 min at ….

A value given as a limit tells only on which side of the number the result lay.

P. aeruginosa single-stranded DNA-binding protein (P. aeruginosa), sequence (P40947 whole entry): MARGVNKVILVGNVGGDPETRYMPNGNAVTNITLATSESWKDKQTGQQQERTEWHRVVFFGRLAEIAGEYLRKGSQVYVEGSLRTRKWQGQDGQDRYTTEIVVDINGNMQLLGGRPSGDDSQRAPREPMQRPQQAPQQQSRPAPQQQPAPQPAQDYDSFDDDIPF
EcoSSB;Eco chi-psi complex (Escherichia coli;Escherichia coli LK111lambda), sequence (P0AGE0 2-178, chain 1 of 3): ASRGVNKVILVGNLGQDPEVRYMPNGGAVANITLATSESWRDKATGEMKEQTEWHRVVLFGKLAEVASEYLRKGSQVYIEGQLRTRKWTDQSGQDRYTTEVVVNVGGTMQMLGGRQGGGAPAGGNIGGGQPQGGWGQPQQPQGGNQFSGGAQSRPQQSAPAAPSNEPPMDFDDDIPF
EcoSSB;Eco chi-psi complex (Escherichia coli;Escherichia coli LK111lambda), sequence (P28905 whole entry, chain 2 of 3): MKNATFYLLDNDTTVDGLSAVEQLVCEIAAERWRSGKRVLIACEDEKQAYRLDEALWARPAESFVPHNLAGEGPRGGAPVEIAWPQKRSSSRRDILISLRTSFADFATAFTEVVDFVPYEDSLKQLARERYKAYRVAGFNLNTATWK
EcoSSB;Eco chi-psi complex (Escherichia coli;Escherichia coli LK111lambda), sequence (P28632 whole entry, chain 3 of 3): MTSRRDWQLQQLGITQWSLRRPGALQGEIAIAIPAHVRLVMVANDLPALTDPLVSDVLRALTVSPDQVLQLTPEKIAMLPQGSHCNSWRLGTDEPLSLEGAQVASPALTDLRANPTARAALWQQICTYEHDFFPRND

In the case of “P. aeruginosa χψ complex (from UniProt O68823 1-142)”, in data set [1], the Ka was found to be 130000 M⁻¹ and the stoichiometry N (χψ per SSB tetramer) turned out to be 2.2. In addition, in data set [2], the Ka was greater than 5e+07 M⁻¹ and the stoichiometry N (χψ per SSB tetramer) was 2.2.
As to “TTTTTTTTTTTTTTTTTTTTTTTTTTTTTTTTTTTTTTTTTTTTTTTTTTTTTTTTTTTTTTTTTTTTTTTTTTTTTTTTTTTTTTTTTTTTTTTTTTTTTTTTTTTTTTTTTTTTTTTTTTTTTTTTTTTTTTTTTTTTTTTTTTTTTTTTTTTTTTTTTTTTTTTTTTTTTTTTTTTTTTTTTTTTTTTTTTTTTTTTTTTTTTTTTTTTTTTTTTTTTTTTTTTTTTTTTTTTTTTTTTTTTTTTTTTTTTTTTTTTTTTTTTTTTTTTTTTTTTTTTTTTTTTTTTTTTTTTTTTT [poly(dT)]”, the Ka was greater than 5e+07 M⁻¹ in data set [3], 500000 M⁻¹ in data set [4] and 6e+06 M⁻¹ in data set [5].
